From PMC9481740 (The Journal of Cell Biology, 2022) come the findings set out here.

Changes are numbered by the printed parent chain.

What all share (details): both partners purified
The target in assay [1] is T1, ROD–Zwilch–ZW10 (RZZ) complex (UniProt P50748 1-2209; Q9H900 1-591; O43264 1-779).
T1 construct: ROD; Zwilch; ZW10; also called mCherry-RZZ; copies: + +
Description: SEC; Superose 6 5/150; RZZ 2 µM, pre-farnesylated mCh-Spindly construct 6 µM. (In gel filtration, larger molecules generally elute earlier.)

The target of assay [2] is T2, mCherry-tagged full-length Spindly (^mChSpindly^FL) (human, UniProt Q96EA4 1-605).
T2 construct: also called ^mChSpindly^WT; Spindly^WT; source: E. coli BL21 CodonPlus, purified (HisTrap, Resource Q, Superdex 200); not shown: mCherry, N-terminal, kept
T2 sequence (looked up): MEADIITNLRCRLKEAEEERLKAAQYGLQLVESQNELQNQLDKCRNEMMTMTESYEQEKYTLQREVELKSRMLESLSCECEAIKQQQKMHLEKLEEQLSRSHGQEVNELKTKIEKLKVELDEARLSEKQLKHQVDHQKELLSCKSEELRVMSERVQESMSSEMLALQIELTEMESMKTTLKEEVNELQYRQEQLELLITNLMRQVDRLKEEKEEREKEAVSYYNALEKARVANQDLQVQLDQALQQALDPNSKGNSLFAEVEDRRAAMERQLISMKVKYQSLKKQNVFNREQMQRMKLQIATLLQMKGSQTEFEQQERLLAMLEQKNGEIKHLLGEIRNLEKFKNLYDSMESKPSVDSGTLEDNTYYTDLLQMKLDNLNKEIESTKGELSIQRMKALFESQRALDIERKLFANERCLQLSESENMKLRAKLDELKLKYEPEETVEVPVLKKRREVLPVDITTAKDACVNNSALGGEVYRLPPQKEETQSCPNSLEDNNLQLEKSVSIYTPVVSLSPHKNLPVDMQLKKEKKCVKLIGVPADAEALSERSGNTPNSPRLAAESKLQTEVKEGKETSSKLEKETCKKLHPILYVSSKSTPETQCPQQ
Description: pull-down; GST or GST-LIC2 bait 4 µM on glutathione beads, mCh-Spindly preys 8 µM, 4°C 1 h, Spindly buffer; eluted with glutathione; mCherry fluorescence of the gel band quantified against Spindly FL.

The target in assay [3] is T3, ^mChSpindly^CC2* (R295E-K297E) (human, UniProt Q96EA4 1-605, R295E | K297E).
T3 construct: source: E. coli BL21 CodonPlus, purified (HisTrap, Resource Q, Superdex 200); not shown: mCherry, N-terminal, kept
T3 sequence (looked up): T2 sequence (looked up) with R295E, K297E
Described as above.

The target of the next assay is T4, ^mChSpindly^ΔRV (human, UniProt Q96EA4 1-605, ΔRV (residues R154–V155)).
T4 construct: also called ^mChSpindly^∆RV; source: E. coli BL21 CodonPlus, purified (HisTrap, Resource Q, Superdex 200); not shown: mCherry, N-terminal, kept
T4 sequence (looked up): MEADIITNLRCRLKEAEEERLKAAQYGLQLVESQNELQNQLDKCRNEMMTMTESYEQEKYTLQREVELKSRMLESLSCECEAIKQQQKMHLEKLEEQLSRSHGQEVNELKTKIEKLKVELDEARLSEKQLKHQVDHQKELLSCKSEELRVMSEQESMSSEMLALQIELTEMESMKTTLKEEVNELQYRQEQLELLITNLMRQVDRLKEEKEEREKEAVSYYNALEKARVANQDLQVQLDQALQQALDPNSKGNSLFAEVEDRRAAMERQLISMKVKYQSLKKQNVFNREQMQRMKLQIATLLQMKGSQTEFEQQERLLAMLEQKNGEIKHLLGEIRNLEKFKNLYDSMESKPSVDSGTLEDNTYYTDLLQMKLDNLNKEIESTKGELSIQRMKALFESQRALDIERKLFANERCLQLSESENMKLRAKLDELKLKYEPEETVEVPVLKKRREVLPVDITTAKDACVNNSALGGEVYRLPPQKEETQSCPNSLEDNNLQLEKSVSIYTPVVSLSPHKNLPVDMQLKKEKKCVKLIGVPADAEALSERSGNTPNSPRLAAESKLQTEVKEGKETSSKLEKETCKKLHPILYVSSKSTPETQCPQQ
The description is as above.

T1 sequence (P50748 whole entry, chain 1 of 3): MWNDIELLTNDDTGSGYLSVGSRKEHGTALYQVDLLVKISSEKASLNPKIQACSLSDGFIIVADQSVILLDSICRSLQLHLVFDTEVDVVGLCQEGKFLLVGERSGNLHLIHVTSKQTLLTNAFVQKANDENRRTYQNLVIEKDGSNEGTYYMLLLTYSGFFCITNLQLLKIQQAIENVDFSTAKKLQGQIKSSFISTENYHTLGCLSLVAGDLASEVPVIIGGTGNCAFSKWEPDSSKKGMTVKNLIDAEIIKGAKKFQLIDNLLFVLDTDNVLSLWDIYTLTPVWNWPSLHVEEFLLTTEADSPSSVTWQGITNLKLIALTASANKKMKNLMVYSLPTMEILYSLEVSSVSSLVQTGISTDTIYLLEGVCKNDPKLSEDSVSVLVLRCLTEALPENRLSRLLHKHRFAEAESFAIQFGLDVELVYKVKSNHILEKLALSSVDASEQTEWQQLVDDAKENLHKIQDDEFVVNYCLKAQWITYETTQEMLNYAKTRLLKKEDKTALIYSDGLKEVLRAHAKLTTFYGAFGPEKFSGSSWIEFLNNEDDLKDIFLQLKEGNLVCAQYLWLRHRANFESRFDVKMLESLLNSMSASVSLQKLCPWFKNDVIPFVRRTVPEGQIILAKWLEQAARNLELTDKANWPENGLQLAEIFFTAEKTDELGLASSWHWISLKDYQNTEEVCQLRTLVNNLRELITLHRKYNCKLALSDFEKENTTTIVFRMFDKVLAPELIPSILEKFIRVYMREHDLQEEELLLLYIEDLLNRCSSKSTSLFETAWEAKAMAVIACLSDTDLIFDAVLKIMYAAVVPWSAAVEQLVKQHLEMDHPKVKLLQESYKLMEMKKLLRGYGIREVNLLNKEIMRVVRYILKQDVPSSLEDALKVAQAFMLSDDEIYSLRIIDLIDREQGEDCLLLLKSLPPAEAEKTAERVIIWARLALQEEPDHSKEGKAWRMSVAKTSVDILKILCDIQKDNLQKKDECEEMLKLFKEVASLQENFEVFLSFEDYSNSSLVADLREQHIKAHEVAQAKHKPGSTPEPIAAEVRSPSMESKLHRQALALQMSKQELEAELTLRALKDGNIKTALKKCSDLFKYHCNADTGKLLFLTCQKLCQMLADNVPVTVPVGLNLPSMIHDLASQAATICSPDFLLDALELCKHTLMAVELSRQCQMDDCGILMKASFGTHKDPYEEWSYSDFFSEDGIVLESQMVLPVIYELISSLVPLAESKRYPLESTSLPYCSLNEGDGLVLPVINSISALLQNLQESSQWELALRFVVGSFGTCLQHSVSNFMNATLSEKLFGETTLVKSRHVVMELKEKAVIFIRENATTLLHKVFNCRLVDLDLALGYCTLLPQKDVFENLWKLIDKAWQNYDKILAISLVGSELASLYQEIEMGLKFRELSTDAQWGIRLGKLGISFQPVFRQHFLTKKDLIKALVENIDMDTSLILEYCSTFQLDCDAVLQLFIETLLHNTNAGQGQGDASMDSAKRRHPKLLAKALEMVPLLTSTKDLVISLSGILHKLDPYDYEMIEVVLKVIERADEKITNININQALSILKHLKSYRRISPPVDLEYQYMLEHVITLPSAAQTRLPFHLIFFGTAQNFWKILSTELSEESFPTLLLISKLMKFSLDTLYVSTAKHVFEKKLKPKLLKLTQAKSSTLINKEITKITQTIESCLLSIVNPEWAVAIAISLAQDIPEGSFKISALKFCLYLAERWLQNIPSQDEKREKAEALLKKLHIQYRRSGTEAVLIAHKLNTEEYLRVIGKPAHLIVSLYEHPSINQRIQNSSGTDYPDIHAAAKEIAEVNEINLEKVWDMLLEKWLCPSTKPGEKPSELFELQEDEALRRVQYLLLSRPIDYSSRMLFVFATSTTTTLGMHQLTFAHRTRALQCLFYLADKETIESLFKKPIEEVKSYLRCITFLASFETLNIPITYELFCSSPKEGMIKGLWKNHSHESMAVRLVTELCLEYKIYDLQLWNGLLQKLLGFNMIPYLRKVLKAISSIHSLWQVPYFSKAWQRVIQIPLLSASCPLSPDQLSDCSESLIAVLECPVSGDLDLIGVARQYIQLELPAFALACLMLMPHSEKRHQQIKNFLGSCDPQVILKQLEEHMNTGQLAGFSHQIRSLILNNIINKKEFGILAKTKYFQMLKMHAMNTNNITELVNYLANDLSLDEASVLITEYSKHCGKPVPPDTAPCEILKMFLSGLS
T1 sequence (Q9H900 whole entry, chain 2 of 3): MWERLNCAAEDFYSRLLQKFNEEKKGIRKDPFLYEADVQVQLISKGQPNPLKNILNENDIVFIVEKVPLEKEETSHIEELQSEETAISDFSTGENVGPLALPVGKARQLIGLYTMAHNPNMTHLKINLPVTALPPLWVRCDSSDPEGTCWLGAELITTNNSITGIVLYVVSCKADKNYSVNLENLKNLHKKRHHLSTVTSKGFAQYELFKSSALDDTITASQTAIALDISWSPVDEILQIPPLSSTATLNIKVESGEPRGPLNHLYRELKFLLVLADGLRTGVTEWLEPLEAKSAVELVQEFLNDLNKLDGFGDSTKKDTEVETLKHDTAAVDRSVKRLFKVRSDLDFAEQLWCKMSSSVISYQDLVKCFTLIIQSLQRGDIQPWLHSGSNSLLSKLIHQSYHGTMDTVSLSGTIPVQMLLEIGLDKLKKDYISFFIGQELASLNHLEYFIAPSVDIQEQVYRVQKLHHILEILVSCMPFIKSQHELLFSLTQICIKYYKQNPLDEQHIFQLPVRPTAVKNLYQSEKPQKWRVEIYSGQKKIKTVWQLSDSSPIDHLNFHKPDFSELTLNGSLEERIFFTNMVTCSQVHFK
T1 sequence (O43264 whole entry, chain 3 of 3): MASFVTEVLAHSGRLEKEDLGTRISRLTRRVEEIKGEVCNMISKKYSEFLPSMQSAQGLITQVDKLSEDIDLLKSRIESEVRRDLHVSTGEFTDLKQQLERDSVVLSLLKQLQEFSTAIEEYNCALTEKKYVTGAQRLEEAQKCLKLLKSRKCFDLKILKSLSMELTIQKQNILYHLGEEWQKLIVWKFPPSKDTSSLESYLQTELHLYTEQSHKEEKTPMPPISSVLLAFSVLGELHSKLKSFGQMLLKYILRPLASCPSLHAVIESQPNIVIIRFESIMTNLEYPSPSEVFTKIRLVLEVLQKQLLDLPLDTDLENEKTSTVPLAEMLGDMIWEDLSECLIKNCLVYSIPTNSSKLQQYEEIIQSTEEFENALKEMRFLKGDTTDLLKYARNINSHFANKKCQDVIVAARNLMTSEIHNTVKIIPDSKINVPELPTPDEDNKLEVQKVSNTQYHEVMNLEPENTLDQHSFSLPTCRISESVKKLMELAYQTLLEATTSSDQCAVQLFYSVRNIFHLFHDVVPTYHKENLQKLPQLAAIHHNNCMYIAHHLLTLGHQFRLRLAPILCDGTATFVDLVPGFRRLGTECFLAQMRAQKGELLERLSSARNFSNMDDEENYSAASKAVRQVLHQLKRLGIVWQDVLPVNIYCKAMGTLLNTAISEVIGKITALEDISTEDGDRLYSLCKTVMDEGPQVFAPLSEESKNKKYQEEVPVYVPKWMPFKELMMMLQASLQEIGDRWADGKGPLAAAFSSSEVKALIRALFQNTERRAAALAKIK

B1: pre-farnesylated ^mChSpindly^CC2* (natural protein, human, UniProt Q96EA4 1-605, looked up)
chain: T2 sequence (looked up) with R295E, K297E
modifications: farnesylated (residue not given)
notes: source: E. coli BL21 CodonPlus, purified; farnesylated in vitro with farnesyltransferase; not shown: mCherry, N-terminal, kept
Turning to B1, in assay [1], the binding result is on record as “binds”.

B2: GST-LIC2 (natural protein, human, UniProt O43237 1-492, looked up)
chain: MAPVGVEKKLLLGPNGPAVAAAGDLTSEEEEGQSLWSSILSEVSTRARSKLPSGKNILVFGEDGSGKTTLMTKLQGAEHGKKGRGLEYLYLSVHDEDRDDHTRCNVWILDGDLYHKGLLKFAVSAESLPETLVIFVADMSRPWTVMESLQKWASVLREHIDKMKIPPEKMRELERKFVKDFQDYMEPEEGCQGSPQRRGPLTSGSDEENVALPLGDNVLTHNLGIPVLVVCTKCDAVSVLEKEHDYRDEHLDFIQSHLRRFCLQYGAALIYTSVKEEKNLDLLYKYIVHKTYGFHFTTPALVVEKDAVFIPAGWDNEKKIAILHENFTTVKPEDAYEDFIVKPPVRKLVHDKELAAEDEQVFLMKQQSLLAKQPATPTRASESPARGPSGSPRTQGRGGPASVPSSSPGTSVKKPDPNIKNNAASEGVLASFFNSLLSKKTGSPGSPGAGGVQSTAKKSGQKTVLSNVQEELDRMTRKPDSMVTNSSTENEA
notes: Dynein light intermediate chain 2 (LIC2), human; GST is TEV-cleavable but was used as the handle on glutathione beads; also called GST-tagged LIC2; source: TnAO38 insect cells (baculovirus), purified (GSTrap, Superdex 200); not shown: GST, N-terminal, kept
As to B2, the binding result (in assay [2]; in assay [3]; in the assay with ^mChSpindly^ΔRV) was “binds” throughout.
